The experiment deals with SlGrx9-nLUC. The experiment can be described thus: luciferase complementation assay (LCA) in N. benthamiana leaves, quantified with ImageJ. The note with it: parent: est. 6.1; read off a plot.

For cLUC-SlTrxh (from UniProt Q9LKW0) C54S, the response was 6.

In the case of cLUC-SlTrxh (from UniProt Q9LKW0) C54W, the response was 15.

The record behind these values is publication PMC11374535.
